The results in this text go back to patent publication US20220153818A1 (UNIVERSITY COURT OF THE UNIVERSITY OF ABERDEEN, published 2022).

Test [1] has as its target T1, human serum albumin (human, UniProt P02768 25-609).
T1 construct: also called HSA
Kind of test: ELISA. In general terms: ELISA stands for enzyme-linked immunosorbent assay.

The target of test [2] is T2, Recombinant Hyr1 N-terminus fragment (amino acids 63-350) with N-terminal 6xHis tag (Candida albicans, UniProt Q5AL03 63-350).
T2 sequence: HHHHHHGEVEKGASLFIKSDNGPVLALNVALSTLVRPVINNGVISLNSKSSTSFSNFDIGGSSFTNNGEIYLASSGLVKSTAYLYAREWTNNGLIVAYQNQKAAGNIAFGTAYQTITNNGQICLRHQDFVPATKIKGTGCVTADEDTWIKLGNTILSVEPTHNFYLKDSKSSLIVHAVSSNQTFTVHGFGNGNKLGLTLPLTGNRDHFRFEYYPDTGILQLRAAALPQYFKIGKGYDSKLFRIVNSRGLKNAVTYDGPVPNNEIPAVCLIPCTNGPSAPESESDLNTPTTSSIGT
Kind of test: ELISA, plate coated with recombinant Hyr1 N-terminus, titrated IgG1.

A word on the EC50: it is the concentration that produces a half-maximal response.

T1 sequence (P02768 25-609 limits assumed): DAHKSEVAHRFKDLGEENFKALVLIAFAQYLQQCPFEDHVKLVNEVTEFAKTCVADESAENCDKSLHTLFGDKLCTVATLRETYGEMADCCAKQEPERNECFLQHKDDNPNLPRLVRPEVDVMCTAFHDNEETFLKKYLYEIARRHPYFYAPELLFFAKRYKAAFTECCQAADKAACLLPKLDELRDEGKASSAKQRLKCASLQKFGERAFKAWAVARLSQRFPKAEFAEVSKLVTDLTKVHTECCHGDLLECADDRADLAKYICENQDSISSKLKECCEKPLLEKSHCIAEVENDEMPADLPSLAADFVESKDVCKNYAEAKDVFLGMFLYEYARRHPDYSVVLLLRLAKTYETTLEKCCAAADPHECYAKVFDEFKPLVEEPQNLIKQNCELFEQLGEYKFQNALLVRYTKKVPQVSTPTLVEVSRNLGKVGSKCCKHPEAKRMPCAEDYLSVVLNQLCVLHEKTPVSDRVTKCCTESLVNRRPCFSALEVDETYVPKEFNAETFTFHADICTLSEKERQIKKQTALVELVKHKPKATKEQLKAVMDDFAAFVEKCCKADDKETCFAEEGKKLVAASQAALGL

B1: AB121 (antibody, V domains shown)
VH: EVQLVESGGTLVQPGGSLRLSCAASGFTFSDYWMNWVRQAPGKGLEWVANIKQDGSEKYYVDSLRGRVTISRDNAQNSVFLQMHSLSVEDTAVYYCARDGYTFGPATTELDHWGRGTLVSVSS
VL: QLVLTQPPSVSVSPGQTASITCSGDELRNKYTSWYQQKSGQSPVLVIYQDNNRPSGIPERFSGSQSGDTATLTISGTQAVDEADYYCQAWVSQTLVFGGGTKLTVL
notes: also called 06-AB-121; anti-Hyr1 mAb AB121
In the case of B1, the binding result in test [1] is “no binding”. For the same molecule, the EC50 in test [2] came to 0.0765 µg/mL.

B2: AB123 (antibody, V domains shown)
VH: EVQLLESGGGVVQPGRSLRLSCAASGFTFSNYGMHWVRQAPGKGLEWVAVVWFDGSYKYYTDSVKGRFTISRDNSKSTLYLQMNSLRAEDTAVYYCVSPIMTSAFDIWGPGTMVSVSS
VL: QLVLTQPPSASGSPGQSVTISCTGTSSDVGGSNFVSWYQHHPGKAPKLMIYEVSQRPSGVPDRFSGSKSGNTASLTVSGLQADDEADYYCSSYAGSVVLFGGGTKLTVL
notes: also called 06-AB-123; anti-Hyr1 mAb AB123
As to B2, the binding result in test [1] is “no binding”. The EC50 in test [2] stood at 0.0533 µg/mL.

B3: AB120 (antibody, V domains shown)
VH: EVQLVQSGGGLVQPGGSLGLSCAASGFIFTSYAMTWVRQAPGKGLEWVSVITGNVGTSYYADSVKGRFTISRDNSKKTVSLQMNSLRAEDTAIYYCVKTRYDFSSGYYFDDWGQGTLVSVSS
VL: DIVMTQSPSSVSASVGDKVTITCRASQGISRWLAWYQQKPGEAPELLIYAASSLQSGVPSRFSGSGSGTDFTLTISSLQPEDFATYYCQQANSFPITFGQGTRLQIK
notes: also called 06-AB-120; anti-Hyr1 mAb AB120
B3: in test [1], the binding result is on record as “no binding”. The EC50 in test [2] turned out to be 0.104 µg/mL.

B4: AB122 (antibody, V domains shown)
VH: EVQLVQSGGGLAQPGRSLRLSCAASGFGFDDFAMHWVRQPPGKGLEWVSGLTWNGGSIDYAGSVRGRFTISRDNAKNSLFLQMNSLRAEDTALYYCAKGLSGGTMAPFDIWGQGTMVSVSS
VL: QAGLTQPPSVSVAPGQTATIPCGGNNIGSKHVHWYQQKPGQAPVAVVYDDSDRPSGVPERFSGSNSGNTATLTISSVEAGDEADYYCQVWDRSSDHFWLFGGGTRLTVL
notes: also called 06-AB-122; anti-Hyr1 mAb AB122
Consider B4, for which the binding result in test [1] is on record as “no binding”. Besides, the EC50 in test [2] came to 0.0496 µg/mL.
